Substitutions are numbered along the chain they refer to.
B1: RA386 (nucleic acid)
DNA: GCGCGTCCTGGATTCGCGGAAACGCGTACATCCAGCTGACGGGAATACCAGCATCGTCTTGATGCCCTTGGAAGTCCAGTCCCAAATAGGACGAAACGCGC
modifications: expressed or natural sequence
B2: RA402 (nucleic acid)
DNA: GCGCGTCCTGGATTCGAGAATACCAGCATCGTCTTGATGCCCTTGGAAGTCTCGCGCGGAAACGCGTACATCCAGCTGACGAGTCCCAAATAGGACGAAACGCGC
modifications: expressed or natural sequence
B3: RA390 (nucleic acid)
DNA: GCGCGTCCGGAATACCAGCATCGTCTTGATGCCCTTGGAAGTCCGGCCTGGATTCGCGGAAACGCGTACATCCAGCTGACGAGTCCCAAATAGGACGAAACGCGC
modifications: expressed or natural sequence
B4: RA401 (nucleic acid)
DNA: GCGCGTCCTGGATTCGCGGAAACGCGCGGAATACCAGCATCGTCTTGATGCCCTTGGAAGTCCGTACATCCAGCTGACGAGTCCCAAATAGGACGAAACGCGC
modifications: expressed or natural sequence
B5: RA399 (nucleic acid)
DNA: GCGCGTCCTGGATTCGCGGAAACGCGTACATCCACGAGAATACCAGCATCGTCTTGATGCCCTTGGAAGTCTCGGCTGACGAGTCCCAAATAGGACGAAACGCGC
modifications: expressed or natural sequence
B6: RA397 (nucleic acid)
DNA: GCGCGTCCTGGATTCGCGGAAACGCGTACATCCAGCTGACGAGTCCCAAATAGGACGAAACGCGCCGGAATACCAGCATCGTCTTGATGCCCTTGGAAGTCCG
modifications: expressed or natural sequence
B7: RA393 (nucleic acid)
DNA: GCGCGTCCTGGATTCGCGGAAACGCGTACATCCAGCTGACGAGTCCCAAATAGGCGGAATACCAGCATCGTCTTGATGCCCTTGGAAGTCCGACGAAACGCGC
modifications: expressed or natural sequence
B8: RA380 (nucleic acid)
DNA: GCGCGTCCTGGATTCGCGGAAACGCCGAGAATACCAGCATCGTCTTGATGCCCTTGGAAGTCTCGGTACATCCAGCTGACGAGTCCCAAATAGGACGAAACGCGC
modifications: expressed or natural sequence
B9: RA396 (nucleic acid)
DNA: GCGCGTCCTGGATTCGCGGAAACGCGTACATCCAGCTGCGGAATACCAGCATCGTCTTGATGCCCTTGGAAGTCCGACGAGTCCCAAATAGGACGAAACGCGC
modifications: expressed or natural sequence
B10: RA389 (nucleic acid)
DNA: GCGCGTCCTGGATTCGCGGAAACGCGTACCGGAATACCAGCATCGTCTTGATGCCCTTGGAAGTCCGATCCAGCTGACGAGTCCCAAATAGGACGAAACGCGC
modifications: expressed or natural sequence
B11: RA400 (nucleic acid)
DNA: GCGCGTCCTGGATTCGCGGAACCGGAATACCAGCATCGTCTTGATGCCCTTGGAAGTCCGGACGCGTACATCCAGCTGACGAGTCCCAAATAGGACGAAACGCGC
modifications: expressed or natural sequence
B12: RA392 (nucleic acid)
DNA: GCGCGTCCTGGATTCGCGGACGGAATACCAGCATCGTCTTGATGCCCTTGGAAGTCCGAACGCGTACATCCAGCTGACGAGTCCCAAATAGGACGAAACGCGC
modifications: expressed or natural sequence
B13: RA391 (nucleic acid)
DNA: GCGCGTCCTGGATTCGCGGAAACGCGTACATCCAGCTGACGAGTCCCAGAGAATACCAGCATCGTCTTGATGCCCTTGGAAGTCTCAATAGGACGAAACGCGC
modifications: expressed or natural sequence
B14: RA398 (nucleic acid)
DNA: GCGCGTCCTGGATTCGCGGACGAGAATACCAGCATCGTCTTGATGCCCTTGGAAGTCTCGAACGCGTACATCCAGCTGACGAGTCCCAAATAGGACGAAACGCGC
modifications: expressed or natural sequence
B15: RA403 (nucleic acid)
DNA: GCGCGTCCTCGGAATACCAGCATCGTCTTGATGCCCTTGGAAGTCCGGGATTCGCGGAAACGCGTACATCCAGCTGACGAGTCCCAAATAGGACGAAACGCGC
modifications: expressed or natural sequence
B16: RA379 (nucleic acid)
DNA: GCGCGTCCTGGATTCGCGGAAACGCGGAATACCAGCATCGTCTTGATGCCCTTGGAAGTCCGTACATCCAGCTGACGAGTCCCAAATAGGACGAAACGCGC
modifications: expressed or natural sequence
B17: RA388 (nucleic acid)
DNA: GCGCGTCCTGAGTGATACCAGCATCGTCTTGATGCCCTTGGCAGCACTGATTCGCGGAAACGCGTACATCCAGCTGACGAGTCCCAAATAGGACGAAACGCGC
modifications: expressed or natural sequence
B18: RA384 (nucleic acid)
DNA: GCGCGTCCTGGATTCGCGGAAACGCGTACATCCAGCTGACGAGTCGAGAATACCAGCATCGTCTTGATGCCCTTGGAAGTCTCCCAAATAGGACGAAACGCGC
modifications: expressed or natural sequence
B19: RA382 (nucleic acid)
DNA: GCGCGTCCTGGATTCGCGGAAACGCGTACATCCAGCTGACGCCGGAATACCAGCATCGTCTTGATGCCCTTGGAAGTCCGGAGTCCCAAATAGGACGAAACGCGC
modifications: expressed or natural sequence
B20: RA381 (nucleic acid)
DNA: GCGCGTCCTGGATTCGCGGAAACGCGTACATCCAGCTGACGAGTCCCAAATAGGACGAAACGCGCCCGGAATACCAGCATCGTCTTGATGCCCTTGGAAGTCCGG
modifications: expressed or natural sequence
B21: RA394 (nucleic acid)
DNA: GCGCGTCCTGGATTCGCAGAATACCAGCATCGTCTTGATGCCCTTGGAAGTCTGGAAACGCGTACATCCAGCTGACGAGTCCCAAATAGGACGAAACGCGC
modifications: expressed or natural sequence
B22: RA385 (nucleic acid)
DNA: GCGCGTCCTGGATCCGGAATACCAGCATCGTCTTGATGCCCTTGGAAGTCCGGTCGCGGAAACGCGTACATCCAGCTGACGAGTCCCAAATAGGACGAAACGCGC
modifications: expressed or natural sequence
B23: RA387 (nucleic acid)
DNA: GCGCGTCCTGGATTCGCGGAAACGCGCCGGAATACCAGCATCGTCTTGATGCCCTTGGAAGTCCGGTACATCCAGCTGACGAGTCCCAAATAGGACGAAACGCGC
modifications: expressed or natural sequence
B24: RA395 (nucleic acid)
DNA: GCGCGTCCTGGATTCGCGGAAACGCGTACATCCAGCTGACGAGTCCCAAATAGGAGAATACCAGCATCGTCTTGATGCCCTTGGAAGTCTCGACGAAACGCGC
modifications: expressed or natural sequence
B25: RA383 (nucleic acid)
DNA: CGGAATACCAGCATCGTCTTGATGCCCTTGGAAGTCCGGCGCGTCCTGGATTCGCGGAAACGCGTACATCCAGCTGACGAGTCCCAAATAGGACGAAACGCGC
modifications: expressed or natural sequence
B26: RA037 (nucleic acid)
DNA: GCGCGTCCTGGATTCGCCGGAATACCAGCATCGTCTTGATGCCCTTGGAAGTCCGGGAAACGCGTACATCCAGCTGACGAGTCCCAAATAGGACGAAACGCGC
modifications: expressed or natural sequence
B27: RA038 (nucleic acid)
DNA: GCGCGTCCTGGATTCGCGGAAACGCGTACATCAGAATACCAGCATCGTCTTGATGCCCTTGGAAGTCTCAGCTGACGAGTCCCAAATAGGACGAAACGCGC
modifications: expressed or natural sequence
B28: RA039 (nucleic acid)
DNA: B27 DNA with A33G, T68C
modifications: expressed or natural sequence

Each molecule was assayed on Renilla luciferase RNA (assay: Barcoded aptazyme variant library screen: un-cleaved Renilla luciferase RNA by barcode read counts, HEK293-T cells). Conditions: un-cleaved Renilla luciferase RNA by barcode read counts; with 1 mM theophylline (ON) over without theophylline (OFF); HEK293-T cells; triplicate.
Type: cell-based
Outline: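 Barcode sequencing of cDNA versus DNA, normalized per aptazyme, gave the un-cleaved Renilla luciferase RNA fraction and fold-change with versus without theophylline (triplicates). Library: T3H48 ribozyme with one of seven theophylline aptamer variants inserted at each position, placed in the Renilla 3′ UTR of a dual-luciferase vector.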

Row | Molecule | Fold change in RNA expression between the ON state and the OFF state
1 | B1 | 0.8
2 | B2 | 0.7
3 | B3 | 0.7
4 | B4 | 0.7
5 | B5 | 0.7
6 | B6 | 0.7
7 | B7 | 0.7
8 | B8 | 0.8
9 | B9 | 0.7
10 | B10 | 0.8
11 | B11 | 0.7
12 | B12 | 0.7
13 | B13 | 0.7
14 | B14 | 0.7
15 | B15 | 0.7
16 | B16 | 0.8
17 | B17 | 0.8
18 | B18 | 0.8
19 | B19 | 0.8
20 | B20 | 0.8
21 | B21 | 0.7
22 | B22 | 0.8
23 | B23 | 0.8
24 | B24 | 0.7
25 | B25 | 0.8

Same assay, conditions: un-cleaved Renilla luciferase RNA, HEK293-T cells cultured with 1 mM theophylline (ON) over without theophylline (OFF); barcode read counts, triplicate

Row | Molecule | Fold change in RNA expression between the ON state and the OFF state
26 | B26 | 2.2 fold
27 | B27 | 2.2 fold
28 | B28 | 2.2 fold

— patent publication US20260167959A1, “APTAZYME-BASED REGULATABLE GENE EXPRESSION SYSTEMS” (REJUVENATE BIO INC, priority 2022, published 2026)
